Laboratory results taken from US7960513B2, “Antibody against a human ADAM protease” (Monash University, priority 2004, dated 2011).
Residue numbers refer to the chain shown, from its start.

T1: EphA3/ephrin-A5 complex (Homo sapiens, UniProt P29320+P52803)
T1 construct: incubated with Fc-tagged ectodomains of Eph-A3, EphB2, EphB4 and ephrin-A2, ephrin-A5, ephrin-B2 (R&D systems)
T1 sequence (P29320 21-541 limits assumed): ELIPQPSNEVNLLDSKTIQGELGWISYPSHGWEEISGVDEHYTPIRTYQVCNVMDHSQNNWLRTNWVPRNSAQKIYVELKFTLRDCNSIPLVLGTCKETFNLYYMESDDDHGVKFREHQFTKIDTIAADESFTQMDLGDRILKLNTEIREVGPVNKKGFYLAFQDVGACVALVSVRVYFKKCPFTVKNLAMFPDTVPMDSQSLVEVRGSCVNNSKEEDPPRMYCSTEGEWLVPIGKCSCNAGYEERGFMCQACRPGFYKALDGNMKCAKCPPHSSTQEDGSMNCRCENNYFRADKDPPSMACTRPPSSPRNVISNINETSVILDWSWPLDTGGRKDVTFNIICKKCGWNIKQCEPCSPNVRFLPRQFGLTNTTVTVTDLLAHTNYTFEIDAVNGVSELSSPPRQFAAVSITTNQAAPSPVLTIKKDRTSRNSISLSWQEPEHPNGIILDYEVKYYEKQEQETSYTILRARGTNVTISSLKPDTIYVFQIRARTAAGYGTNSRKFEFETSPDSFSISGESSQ
T1 sequence (P52803 21-203 limits assumed): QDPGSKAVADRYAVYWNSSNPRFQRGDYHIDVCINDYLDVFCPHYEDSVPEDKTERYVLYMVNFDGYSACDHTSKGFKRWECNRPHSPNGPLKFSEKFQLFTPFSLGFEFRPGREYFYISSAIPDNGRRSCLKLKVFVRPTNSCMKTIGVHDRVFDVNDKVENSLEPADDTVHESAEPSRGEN

T2: EphA3/ephrin-A5 complex on cells (cell-surface EphA3 with pre-clustered ephrin-A5-Fc), P29320
T2 chain 1: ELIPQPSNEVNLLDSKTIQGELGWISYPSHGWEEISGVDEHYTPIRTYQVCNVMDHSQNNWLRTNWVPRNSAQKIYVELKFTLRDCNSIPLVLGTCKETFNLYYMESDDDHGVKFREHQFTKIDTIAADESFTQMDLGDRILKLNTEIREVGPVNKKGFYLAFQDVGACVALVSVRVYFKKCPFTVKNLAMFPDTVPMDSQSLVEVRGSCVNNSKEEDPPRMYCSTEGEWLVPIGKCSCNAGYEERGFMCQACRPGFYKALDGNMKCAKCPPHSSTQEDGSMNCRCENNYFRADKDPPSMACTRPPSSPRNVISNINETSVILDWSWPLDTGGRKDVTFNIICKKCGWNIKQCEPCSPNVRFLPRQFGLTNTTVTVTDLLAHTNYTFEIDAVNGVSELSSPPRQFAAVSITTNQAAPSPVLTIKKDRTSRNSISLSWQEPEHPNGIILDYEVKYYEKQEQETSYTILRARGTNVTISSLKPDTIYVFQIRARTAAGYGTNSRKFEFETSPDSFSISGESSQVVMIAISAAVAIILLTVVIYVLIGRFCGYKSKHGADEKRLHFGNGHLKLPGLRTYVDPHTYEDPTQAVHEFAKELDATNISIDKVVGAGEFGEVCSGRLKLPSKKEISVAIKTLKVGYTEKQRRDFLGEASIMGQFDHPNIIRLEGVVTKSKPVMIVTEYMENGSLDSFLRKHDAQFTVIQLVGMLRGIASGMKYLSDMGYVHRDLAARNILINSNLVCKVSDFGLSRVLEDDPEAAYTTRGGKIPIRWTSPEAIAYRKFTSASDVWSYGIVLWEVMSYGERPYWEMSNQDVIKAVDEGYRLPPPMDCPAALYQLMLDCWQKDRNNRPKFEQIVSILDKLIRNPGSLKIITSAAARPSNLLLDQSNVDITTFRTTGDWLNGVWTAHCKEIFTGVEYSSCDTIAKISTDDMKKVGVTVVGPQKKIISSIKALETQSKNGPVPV
T2 chain 2: T1 sequence (P52803 21-203 limits assumed)

B1: ADAM10D+C[EEE-A]: ADAM10D+C with Glu573, Glu578 and Glu579 mutated to alanines (protein)
chain: SGQPICGNGMVEQGEECDCGYSDQCKDECCYDANQPEGKKCKLKPGKQCSPSQGPCCTAHCAFKSKTEKCRDDSDCAKEGICNGITALCPASDPKPNFTDCNRHTQVCINGQCAGSICAKHGLAACTCASSDGKDDKELCHVCCMKKMEPSTCASTGSVQWNKYFLGRTITLQPGSPCNDFRGYCDVFMRCR
B2: ADAM10D+C[RDD-A]: ADAM10D+C with Ala substitutions of Arg525, Asp526, Asp527 (protein)
chain: B1 chain with R71A, D72A, D73A, A119E, A124E, A125E
B3: full-length ADAM10[EEE-A] (protein)
chain: TTVAEKNTCQLYIQTDHLFFKYYGTREAVIAQISSHVKAIDTIYQTTDFSGIRNISFMVKRIRINTTADEKDPTNPFRFPNIGVEKFLELNSEQNHDDYCLAYVFTDRDFDDGVLGLAWVGAPSGSSGGICEKSKLYSDGKKKSLNTGIITVQNYGSHVPPKVSHITFAHEVGHNFGSPHDSGTECTPGESKNLGQKENGNYIMYARATSGDKLNNNKFSLCSIRNISQVLEKKRNNCFVESGQPICGNGMVEQGEECDCGYSDQCKDECCYDANQPEGKKCKLKPGKQCSPSQGPCCTAHCAFKSKTEKCRDDSDCAKEGICNGITALCPASDPKPNFTDCNRHTQVCINGQCAGSICAKHGLAACTCASSDGKDDKELCHVCCMKKMEPSTCASTGSVQWNKYFLGRTITLQPGSPCNDFRGYCDVFMRCRLVDADGPLARLKKAIFSPELYENIAEWIVAYWWAVLLMGIALIMLMAGFIKICSVHTPSSNPKLPPPKPLPGTLKRRRPPQPIQQPQRQRPRESYQMGHMRR
B4: full-length ADAM10 with lysine (3K) substitutions of Glu573, 578, 579 (protein)
chain: B3 chain with A360K, A365K, A366K

Experiments:
EphA3/HEK293 cells = test: Ephrin-A5 cleavage and internalisation in EphA3-expressing cells treated with clustered ephrin-A5-Fc / ephrinA5-Fc beads; assay type: cell-based, human
Experimental: FIG. 1. EphA3-ADAM10 association, ephrin-A5 cleavage and ephrin internalisation. • A. Association of ADAM10 with EphA3 in LiBr melanoma cells and parental or stably transfected EphA3/HEK293 cells. The cells were treated with clustered ephrin-Fc (A5 or A2) or were left untreated (−) prior to lysis. Anti-EphA3 immunoprecipitates from lysates were analysed by Western blot for endogenous ADAM10 (“p” and “m” indicate the pro (unprocessed) and mature (processed) forms of ADAM10). Aliquots from immunoprecipitates were blotted for EphA3 levels to indicate loading (lower panel). […] EphA3/HEK293 or ephrin-A5/HEK293 cells were transfected to express HA-tagged ADAM10ΔPM. Western Blots of anti-HA immuno-precipitates were analysed with antibodies against ephrin-A5 and EphA3, parallel control samples with anti-ADAM10 antibodies. Lysates of ephrin-A5/HEK 293 cells were also extracted with Protein-A Sepharose-bound EphA3 Fc and analysed with anti-ephrin-A5 antibodies. • C. […] Pooled cell lysates and supernatants were pre-cleared with excess Protein-A Sepharose, cleaved ephrin-A5 was extracted using EphA3-Fc coupled to Protein-A Sepharose and analysed by anti-ephrin-A5 immuno-blot. Recombinant, monomeric, single-chain ephrin-A5 (Himanen et al., 2004, Nat Neurosci. 7 501-9; ephrin std) was analysed in parallel. • D. Ephrin-A5 cleavage and internalisation are inhibited by dominant-negative ADAM10. […]

EphA3/ephrin-A5 complex = target: T1, EphA3/ephrin-A5 complex; test: In vitro binding (Protein-A pull-down) assay; settings: EphA3-Fc plus untagged ephrin-A5
Experimental: Pull-down experiments were done as follows: ADAM10D+C, ADAM17D+C w.t. or the alanine mutants (˜15 μg) were incubated with Fc-tagged ectodomains of Eph-A3, EphB2, EphB4 and ephrin-A2, ephrin-A5, ephrin-B2 (R&D systems) at 4° C. for 30 min in 500 μL of binding buffer containing 10 mM HEPES (pH 7.4), 150 mM NaCl and 0.05% of Triton X-100. To test binding to the preformed EphA3/ephrin-A5 complex, 5 μg of the untagged ephrin-A5 was incubated with Fc tagged EphA3 for 30 min at 4° C. followed by the addition of ADAM10. The proteins were incubated for an additional 30 min., when Protein-A-Sepharose (Amersham) beads were added to the reaction mixture and shaken at 4° C. for 2h. The beads were then harvested by centrifugation, washed once with 500 μl of binding buffer and the bound proteins were separated on a 10-20% gradient polyacrylamide gel. The binding of the individual ADAM domains was carried out likewise using 15 μg of the disintegrin and 8 μg of the cysteine-rich domain.

[1] = target: T2, EphA3/ephrin-A5 complex on cells …

Molecule	binding to EphA3/ephrin-A5 complex (EphA3/ephrin-A5 complex)	ephrin-A5 cleavage (cleaved ephrin-A5 recovered with EphA3-Fc, anti-ephrin-A5 Western blot) [1]	further results
CC(C)C[C@H](CC(=O)NO)C(=O)N[C@@H](Cc1ccc2ccccc2c1)C(=O)N[C@@H](C)C(=O)NCCN [TAPI]			ephrin-A5 cleavage and internalisation (EphA3/HEK293 cells; pretreated with 50 μM TAPI1 (1h)): inhibited
c1cnc2c(c1)ccc1cccnc12 [1,10-O-Phenanthroline]			ephrin-A5 cleavage and internalisation (EphA3/HEK293 cells; pretreated with 1 mM OPN (4h)): inhibited
B1	does not bind		
B2	retains wild-type binding affinity		
B3		overexpression of mutant ADAM10 with Ala or Lys substitutions of the three Glu residues or lacking the protease domain, effectively inhibited ephrin-A5 cleavage	
B4		overexpression of mutant ADAM10 with Ala or Lys substitutions of the three Glu residues or lacking the protease domain, effectively inhibited ephrin-A5 cleavage	
